# Molecular target: CPTL derived from para rubber tree (Hevea brasiliensis) (Hevea brasiliensis)
row,"Radioactivity (isoprene polymerization activity, 14C-IPP incorporation, proteoliposome) [dpm]",Substance
1,290,CPT1 derived from para rubber tree (Hevea brasiliensis) (enzyme)
2,7660,cis-prenyltransferase (CPT) 6 derived from para rubber tree (Hevea brasiliensis) (enzyme)
3,5040,cis-prenyltransferase (CPT) 7 derived from para rubber tree (Hevea brasiliensis) (enzyme)
